# PMC7517697
# Tested on: T1, CATH-B1 (mature cathelicidin-B1 peptide) (chicken)
# T1 sequence: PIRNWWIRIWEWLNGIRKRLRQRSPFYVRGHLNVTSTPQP
# Assay: ITC
# Settings: 75% PBS, 37 °C, dH -65.5 kJ/mol, dS -73.5 J/mol as printed, ITC: 75% PBS (PBS/H2O 3:1 v/v), 200 µM CATH-B1 in syringe titrated in 1 µL injections at 300 s intervals into ODN-2006 (25 nM as printed), pH not stated
substance,measurement,value
ODN-2006,Kd,64 nM
